From paper PMC4755027

Target: Human TLR4 on HEK-Blue reporter cells (human) (UniProt O00206)
Conditions: scale: absorbance at 640 nm

Sequence of UniProt O00206 (O00206 24-839): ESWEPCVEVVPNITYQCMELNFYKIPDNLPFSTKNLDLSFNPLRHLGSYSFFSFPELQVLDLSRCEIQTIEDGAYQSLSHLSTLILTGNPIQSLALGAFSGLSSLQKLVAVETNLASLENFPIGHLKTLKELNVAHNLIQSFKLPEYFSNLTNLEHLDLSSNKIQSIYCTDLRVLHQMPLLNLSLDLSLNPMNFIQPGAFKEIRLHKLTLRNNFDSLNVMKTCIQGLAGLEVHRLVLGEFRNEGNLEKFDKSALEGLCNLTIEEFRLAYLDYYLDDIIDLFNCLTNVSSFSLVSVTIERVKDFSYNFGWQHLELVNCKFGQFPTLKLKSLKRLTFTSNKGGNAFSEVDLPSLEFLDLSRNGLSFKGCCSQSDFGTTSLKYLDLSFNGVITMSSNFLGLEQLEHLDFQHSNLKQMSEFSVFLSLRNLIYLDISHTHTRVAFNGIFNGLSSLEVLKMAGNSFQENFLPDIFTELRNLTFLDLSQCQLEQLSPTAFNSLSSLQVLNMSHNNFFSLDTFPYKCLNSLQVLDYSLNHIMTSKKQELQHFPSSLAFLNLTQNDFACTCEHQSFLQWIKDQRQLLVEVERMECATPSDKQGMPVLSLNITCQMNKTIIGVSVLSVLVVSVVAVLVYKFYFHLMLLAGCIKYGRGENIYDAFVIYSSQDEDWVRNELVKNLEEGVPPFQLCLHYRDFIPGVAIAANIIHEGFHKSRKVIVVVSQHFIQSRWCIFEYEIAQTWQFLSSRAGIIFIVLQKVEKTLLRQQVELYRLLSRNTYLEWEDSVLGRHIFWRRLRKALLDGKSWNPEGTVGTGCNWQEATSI

Row | Substance | secreted alkaline phosphatase of HEK-Blue human TLR4 reporter cells, absorbance at 640 nm normalized to media controls, mean of three experiments | secreted alkaline phosphatase of HEK-Blue human TLR4 reporter cells, absorbance at 640 nm normalized to media controls, mean of three experiments; significantly superior to equimolar ANXA2t
1 | Bovine annexin A2 heterotetramer (from UniProt P04272 1-339; P60902 1-97) (complex) | 1.7 | 
2 | Human monomeric annexin A2 (from UniProt P07355 1-339) (natural protein) |  | 2.7
